Literature values in publication PMC4624693.

Legend:
[1] = target: Cterm53 (UniProt position 1029, RWWELRHAGYG); assay: NMR; settings: free, folded protein
[2] = target: His22 (UniProt position 998, GGVCMHIESLD); assay: NMR; settings: free, folded protein
[3] = target: Nterm1 (UniProt position 977, HHLDRNSYPGC); assay: NMR; settings: free, folded protein
[4] = target: Asp40 (UniProt position 1016, IGYSGDRCQTR); assay: NMR; settings: free, folded protein
[5] = target: Glu24 (UniProt position 1000, VCMHIESLDSY); assay: NMR; settings: free, folded protein
[6] = target: Asp27 (UniProt position 1003, HIESLDSYTCN); assay: NMR; settings: free, folded protein
[7] = target: Asp46 (UniProt position 1022, RCQTRDLRWWE); assay: NMR; settings: free, folded protein
[8] = target: Glu51 (UniProt position 1027, DLRWWELRHAG); assay: NMR; settings: free, folded protein
[9] = target: Asp11 (UniProt position 987, CPSSYDGYCLN); assay: NMR; settings: free, folded protein
[10] = target: Lys66 (UniProt position 148, FTKKMKENAKK)
[11] = target: Asp; settings: free peptide

Molecule: Epidermal growth factor (mouse EGF) (Mus musculus)
- pKa [1]: 3.5±0.1
- pKa [2]: 6.8±0.1
- pKa [3]: 7.7±0.1
- pKa [4]: 3.6±0.1
- pKa [5]: 4.1±0.1
- pKa [6]: 4.0±0.1
- pKa [7]: 3.8±0.1
- pKa [8]: ~4
- pKa [9]: 3.9±0.05

Molecule: Staphylococcal nuclease Delta+PHS/V66K (Staphylococcus aureus; V66K; Delta+PHS background (substitutions not listed in the article))
- pKa [10]: 5.6

Molecule: SDNKTYG
- pKa [11]: 3.6
